Test results from patent US20220010021A1 (Sanofi, published 2022).
Where a chain is given by its changes, count along the chain named.

B1: 16H7 variant with light chain substitution S94G (antibody, human IgG4 S228P, lambda, V domains shown)
VH: not shown
VL: SYVLTQPPSVSVAPGQTARITCGGNNIGSESVHWYQQKPGQAPVLVVYDDSDRPSGIPERFSGSNSGNTATLTISRVEAGDEADYYCQVWDGNGDHVVFGGGTKLTVLG
notes: IgG4 backbone was used
B2: 16H7 variant with light chain substitution D95A (antibody, human IgG4 S228P, lambda, V domains shown)
VH: not shown
VL: B1 VL with G94S, D95A
notes: IgG4 backbone was used
B3: 16H7 variant with light chain substitution D95H (antibody, human IgG4 S228P, lambda, V domains shown)
VH: not shown
VL: B1 VL with G94S, D95H
notes: IgG4 backbone was used
B4: 16H7 variant with light chain substitution D95I (antibody, human IgG4 S228P, lambda, V domains shown)
VH: not shown
VL: B1 VL with G94S, D95I
notes: IgG4 backbone was used
B5: 16H7 variant with light chain substitution D95M (antibody, human IgG4 S228P, lambda, V domains shown)
VH: not shown
VL: B1 VL with G94S, D95M
notes: IgG4 backbone was used
B6: 16H7 variant with light chain substitution D95Y (antibody, human IgG4 S228P, lambda, V domains shown)
VH: not shown
VL: B1 VL with G94S, D95Y
notes: IgG4 backbone was used
B7: 16H7 variant with light chain substitution H96D (antibody, human IgG4 S228P, lambda, V domains shown)
VH: not shown
VL: B1 VL with G94S, H96D
notes: IgG4 backbone was used
B8: 16H7 variant with light chain substitution H96E (antibody, human IgG4 S228P, lambda, V domains shown)
VH: not shown
VL: B1 VL with G94S, H96E
notes: IgG4 backbone was used
B9: 16H7 variant with light chain substitution H96G (antibody, human IgG4 S228P, lambda, V domains shown)
VH: not shown
VL: B1 VL with G94S, H96G
notes: IgG4 backbone was used
B10: 16H7 variant with light chain substitution H96K (antibody, human IgG4 S228P, lambda, V domains shown)
VH: not shown
VL: B1 VL with G94S, H96K
notes: IgG4 backbone was used
B11: 16H7 variant with light chain substitution H96L (antibody, human IgG4 S228P, lambda, V domains shown)
VH: not shown
VL: B1 VL with G94S, H96L
notes: IgG4 backbone was used
B12: 16H7 variant with light chain substitution H96N (antibody, human IgG4 S228P, lambda, V domains shown)
VH: not shown
VL: B1 VL with G94S, H96N
notes: IgG4 backbone was used
B13: 16H7 variant with light chain substitution H96Q (antibody, human IgG4 S228P, lambda, V domains shown)
VH: not shown
VL: B1 VL with G94S, H96Q
notes: IgG4 backbone was used
B14: 16H7 variant with light chain substitution H96R (antibody, human IgG4 S228P, lambda, V domains shown)
VH: not shown
VL: B1 VL with G94S, H96R
notes: IgG4 backbone was used
B15: Ab0344 (antibody, IgG4, V domains shown)
VH: QVTLKESGPVLVKPTETLTLTCTVSGFSLNNARVGVSWIRQPPGKALEWLAHIFSNDEKSYSTSLKSRLTISKDTSKSQVVLTMTNMDPVDTATYYCARSVVTGGYYYEGMDVWGQGTTVTVSS
VL: B1 VL with N25S, D49A, D50A, D91E, N93S, G94S
notes: IgG4 PE
B16: Ab0345 (antibody, IgG4, V domains shown)
VH: B15 VH
VL: B1 VL with N25S, D49A, D50A, D91E, N93A, G94S
notes: IgG4 PE
B17: Ab0352 (antibody, IgG4, V domains shown)
VH: B15 VH
VL: B1 VL with N25S, D49E, D50E, D91E, N93S, G94S
notes: IgG4 PE
B18: Ab0353 (antibody, IgG4, V domains shown)
VH: B15 VH
VL: B1 VL with N25S, D49E, D50E, D91E, N93A, G94S
notes: IgG4 PE
B19: Ab0354 (antibody, IgG4, V domains shown)
VH: B15 VH
VL: B1 VL with N25S, D49E, D50E, D91H, N93S, G94S
notes: IgG4 PE
B20: Ab0355 (antibody, IgG4, V domains shown)
VH: B15 VH
VL: B1 VL with N25S, D49E, D50Y, D91E, N93S, G94S
notes: IgG4 PE
B21: Ab0357 (antibody, IgG4, V domains shown)
VH: B15 VH
VL: B1 VL with N25S, D49E, D50A, D91E, N93S, G94S
notes: IgG4 PE
B22: Ab0358 (antibody, IgG4, V domains shown)
VH: B15 VH
VL: B1 VL with N25S, D49E, D50A, D91H, N93S, G94S
notes: IgG4 PE
B23: Ab0360 (antibody, IgG4, V domains shown)
VH: B15 VH
VL: B1 VL with N25S, D49E, D50H, D91E, N93S, G94S
notes: IgG4 PE
B24: Ab0361 (antibody, IgG4, V domains shown)
VH: B15 VH
VL: B1 VL with N25S, D49E, D50S, D91E, N93S, G94S
notes: IgG4 PE
B25: Ab0364 (antibody, IgG4, V domains shown)
VH: B15 VH
VL: B1 VL with N25A, D49E, D50E, D91E, N93S, G94S
notes: IgG4 PE
B26: Ab0416 (antibody, IgG4, V domains shown)
VH: B15 VH
VL: B1 VL with N25S, D49Y, D50E, D91E, N93E, G94S
notes: IgG4 PE
B27: Ab0417 (antibody, IgG4, V domains shown)
VH: B15 VH
VL: B1 VL with N25S, D49Y, D50E, D91H, N93E, G94S
notes: IgG4 PE

Experiments:
[1] = target: cell surface receptor composed of the tyrosine kinase receptor FGFR1c and co-receptor beta-Klotho (KLB) (human, UniProt P11362 22-822; Q86Z14 1-1044); assay: cell-based or functional assay
beta-Klotho (KLB) = target: T1, beta-Klotho (KLB) (Homo sapiens (Human), UniProt Q86Z14 1-996); assay: BLI (Octet) off-rate screening, mAb from supernatant on anti-hIgG Fc sensor, 5 nmol/L KLB;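 further: dissociation followed for 1800 s in D-PBS plus 0.1% BSA, antibody supernatants applied at 25 µg/mL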
T1 construct: also called β-Klotho; not shown: C-terminal His tag of the bought R&D Systems protein
T1 sequence: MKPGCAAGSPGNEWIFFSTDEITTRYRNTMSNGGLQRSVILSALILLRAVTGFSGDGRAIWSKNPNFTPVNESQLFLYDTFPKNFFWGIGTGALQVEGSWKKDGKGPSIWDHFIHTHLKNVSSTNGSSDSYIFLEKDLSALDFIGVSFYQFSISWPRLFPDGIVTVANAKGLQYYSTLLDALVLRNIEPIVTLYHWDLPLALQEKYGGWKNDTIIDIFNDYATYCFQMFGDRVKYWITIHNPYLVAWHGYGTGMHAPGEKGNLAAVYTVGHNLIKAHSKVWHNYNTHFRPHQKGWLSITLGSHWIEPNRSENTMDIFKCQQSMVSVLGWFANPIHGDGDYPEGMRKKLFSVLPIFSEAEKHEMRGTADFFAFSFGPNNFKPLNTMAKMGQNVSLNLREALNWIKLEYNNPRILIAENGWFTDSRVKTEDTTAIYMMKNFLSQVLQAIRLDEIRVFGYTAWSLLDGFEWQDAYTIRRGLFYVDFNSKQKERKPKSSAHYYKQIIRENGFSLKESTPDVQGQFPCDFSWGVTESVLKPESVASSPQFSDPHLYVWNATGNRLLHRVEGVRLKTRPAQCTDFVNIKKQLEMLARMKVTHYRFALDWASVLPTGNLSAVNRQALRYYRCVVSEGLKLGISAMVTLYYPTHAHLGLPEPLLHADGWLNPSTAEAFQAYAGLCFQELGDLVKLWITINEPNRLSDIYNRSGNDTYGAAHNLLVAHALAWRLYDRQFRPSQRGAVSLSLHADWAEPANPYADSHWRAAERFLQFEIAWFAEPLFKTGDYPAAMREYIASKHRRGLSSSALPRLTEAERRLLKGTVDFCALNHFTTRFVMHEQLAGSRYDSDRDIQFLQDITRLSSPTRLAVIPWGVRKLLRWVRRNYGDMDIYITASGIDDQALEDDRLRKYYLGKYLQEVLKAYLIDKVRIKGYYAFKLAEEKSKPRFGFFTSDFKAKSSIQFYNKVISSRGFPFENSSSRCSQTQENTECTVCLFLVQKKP

[2] = target: human FGFR1c + KLB receptor complex on HEK293 iLite FGF21 reporter cells (human, UniProt P11362 22-822; Q86Z14 1-1044); assay: cell-based or functional assay
human beta-Klotho (KLB) = target: T2, human beta-Klotho (KLB) (human, UniProt Q86Z14 53-997); assay: SPR;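 further: Anti-KLB antibodies captured on anti-human Fc CM5 chip, KLB injected as analyte, 180 s association and 1800 s dissociation, fitted to 1:1 binding model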
T2 construct: bought protein; also called human KLB
T2 sequence (looked up): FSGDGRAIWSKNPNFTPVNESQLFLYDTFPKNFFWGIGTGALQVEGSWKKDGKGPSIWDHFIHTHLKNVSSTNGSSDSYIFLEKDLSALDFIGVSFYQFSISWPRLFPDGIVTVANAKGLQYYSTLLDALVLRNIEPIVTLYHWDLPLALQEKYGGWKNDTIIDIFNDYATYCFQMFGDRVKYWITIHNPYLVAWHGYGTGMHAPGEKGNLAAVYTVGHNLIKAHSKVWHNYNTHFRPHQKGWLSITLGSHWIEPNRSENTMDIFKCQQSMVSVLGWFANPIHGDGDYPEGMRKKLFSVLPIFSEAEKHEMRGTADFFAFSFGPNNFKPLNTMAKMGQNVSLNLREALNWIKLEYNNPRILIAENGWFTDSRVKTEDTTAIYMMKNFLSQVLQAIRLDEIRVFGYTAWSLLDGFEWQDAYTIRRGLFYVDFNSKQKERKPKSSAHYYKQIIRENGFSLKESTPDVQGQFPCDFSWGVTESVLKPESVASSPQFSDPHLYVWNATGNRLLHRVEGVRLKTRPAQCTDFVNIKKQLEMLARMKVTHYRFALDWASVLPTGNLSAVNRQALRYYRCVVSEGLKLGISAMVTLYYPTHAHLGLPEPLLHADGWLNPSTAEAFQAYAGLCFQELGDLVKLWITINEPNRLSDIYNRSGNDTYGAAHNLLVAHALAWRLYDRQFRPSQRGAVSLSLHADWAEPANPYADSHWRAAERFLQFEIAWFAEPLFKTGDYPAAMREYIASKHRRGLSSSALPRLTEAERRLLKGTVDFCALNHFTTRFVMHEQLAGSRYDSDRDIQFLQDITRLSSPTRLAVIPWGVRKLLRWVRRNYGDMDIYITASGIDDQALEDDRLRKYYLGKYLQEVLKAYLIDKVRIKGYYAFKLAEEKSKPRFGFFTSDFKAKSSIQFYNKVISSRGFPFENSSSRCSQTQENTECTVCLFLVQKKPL

Sequence of cell surface receptor composed of the tyrosine kinase receptor FGFR1c and co-receptor beta-Klotho (KLB) (P11362 22-822, one chain of several): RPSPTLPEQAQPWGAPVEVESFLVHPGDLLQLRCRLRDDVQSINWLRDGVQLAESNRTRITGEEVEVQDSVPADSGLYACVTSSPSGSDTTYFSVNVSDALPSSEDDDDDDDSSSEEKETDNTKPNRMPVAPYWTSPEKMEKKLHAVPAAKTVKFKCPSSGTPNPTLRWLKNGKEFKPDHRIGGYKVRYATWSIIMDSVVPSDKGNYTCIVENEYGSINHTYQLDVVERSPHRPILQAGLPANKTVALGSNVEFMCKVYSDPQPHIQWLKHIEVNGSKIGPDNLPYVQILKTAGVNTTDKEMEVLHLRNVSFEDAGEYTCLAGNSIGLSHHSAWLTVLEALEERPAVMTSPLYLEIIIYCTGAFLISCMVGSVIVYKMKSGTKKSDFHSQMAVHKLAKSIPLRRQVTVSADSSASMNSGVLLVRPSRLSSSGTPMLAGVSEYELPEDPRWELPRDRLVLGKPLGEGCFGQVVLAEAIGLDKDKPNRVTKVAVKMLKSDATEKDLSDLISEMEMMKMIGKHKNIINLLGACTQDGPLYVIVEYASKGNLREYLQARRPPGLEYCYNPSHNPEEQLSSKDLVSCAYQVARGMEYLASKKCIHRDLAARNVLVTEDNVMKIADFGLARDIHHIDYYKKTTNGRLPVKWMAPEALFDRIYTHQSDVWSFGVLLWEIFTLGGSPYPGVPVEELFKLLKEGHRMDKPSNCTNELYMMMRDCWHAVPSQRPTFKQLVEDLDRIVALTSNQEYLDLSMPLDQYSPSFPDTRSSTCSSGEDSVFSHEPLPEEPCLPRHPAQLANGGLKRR
Sequence of human FGFR1c + KLB receptor complex on HEK293 iLite FGF21 reporter cells (P11362 22-822, chain 1 of 2): as the sequence (P11362 22-822, one chain of several) above
Sequence of human FGFR1c + KLB receptor complex on HEK293 iLite FGF21 reporter cells (Q86Z14 whole entry, chain 2 of 2): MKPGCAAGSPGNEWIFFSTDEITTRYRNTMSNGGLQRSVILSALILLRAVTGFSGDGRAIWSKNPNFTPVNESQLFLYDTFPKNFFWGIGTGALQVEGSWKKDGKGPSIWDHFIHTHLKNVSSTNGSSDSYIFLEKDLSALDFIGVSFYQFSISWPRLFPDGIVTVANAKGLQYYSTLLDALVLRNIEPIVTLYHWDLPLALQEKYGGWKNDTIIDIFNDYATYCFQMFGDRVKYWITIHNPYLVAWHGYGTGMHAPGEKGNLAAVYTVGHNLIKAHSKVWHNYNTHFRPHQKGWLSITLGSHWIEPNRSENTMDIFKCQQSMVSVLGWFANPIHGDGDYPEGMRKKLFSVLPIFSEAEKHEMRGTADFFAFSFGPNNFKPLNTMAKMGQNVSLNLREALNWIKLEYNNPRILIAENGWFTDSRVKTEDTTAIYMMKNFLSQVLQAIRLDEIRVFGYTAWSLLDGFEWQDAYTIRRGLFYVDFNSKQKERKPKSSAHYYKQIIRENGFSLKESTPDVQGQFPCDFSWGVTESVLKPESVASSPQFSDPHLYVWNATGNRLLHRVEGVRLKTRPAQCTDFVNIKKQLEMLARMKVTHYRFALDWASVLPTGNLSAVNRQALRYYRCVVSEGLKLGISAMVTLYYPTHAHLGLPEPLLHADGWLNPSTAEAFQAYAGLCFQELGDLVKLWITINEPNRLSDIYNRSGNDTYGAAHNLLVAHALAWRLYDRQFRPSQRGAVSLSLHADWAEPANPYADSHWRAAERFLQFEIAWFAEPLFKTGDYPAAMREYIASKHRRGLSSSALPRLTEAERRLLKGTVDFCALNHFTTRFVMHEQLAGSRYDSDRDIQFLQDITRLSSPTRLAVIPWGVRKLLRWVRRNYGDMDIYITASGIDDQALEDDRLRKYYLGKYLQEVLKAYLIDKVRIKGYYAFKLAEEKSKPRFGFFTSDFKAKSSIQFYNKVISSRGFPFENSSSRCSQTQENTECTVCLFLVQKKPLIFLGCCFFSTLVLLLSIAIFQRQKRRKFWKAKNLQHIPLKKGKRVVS

Mean E max, Luciferase gene reporter assay [1] | Mean EC50, Luciferase gene reporter assay [1] | koff (beta-Klotho (KLB)) | EC50 [2] | Emax [2] | koff (human beta-Klotho (KLB)) | Binder
100% | 0.146 nM | 6.8e-05 s⁻¹ |  |  |  | B1
12% |  | 0.0002 s⁻¹ |  |  |  | B2
33% | 29.7 nM | 8.1e-06 s⁻¹ |  |  |  | B3
4% |  | 0.00016 s⁻¹ |  |  |  | B4
8% |  | 1.4e-05 s⁻¹ |  |  |  | B5
4% |  | 0.00013 s⁻¹ |  |  |  | B6
100% | 0.111 nM | 2.2e-05 s⁻¹ |  |  |  | B7
100% | 0.122 nM | 1.1e-05 s⁻¹ |  |  |  | B8
95% | 0.13 nM | 0.00015 s⁻¹ |  |  |  | B9
98% | 0.179 nM | 6.4e-05 s⁻¹ |  |  |  | B10
98% | 0.176 nM | 0.00013 s⁻¹ |  |  |  | B11
112% | 0.143 nM | 4.4e-05 s⁻¹ |  |  |  | B12
104% | 0.106 nM | 5e-05 s⁻¹ |  |  |  | B13
102% | 0.095 nM | 0.00014 s⁻¹ |  |  |  | B14
 |  |  | 0.07 nM | 958% | 0.00168 s⁻¹ | B15
 |  |  | 0.07 nM | 908% | 0.00188 s⁻¹ | B16
 |  |  | 0.07 nM | 1010% | 0.000419 s⁻¹ | B17
 |  |  | 0.08 nM | 895% | 0.00038 s⁻¹ | B18
 |  |  | 0.07 nM | 878% | 0.00158 s⁻¹ | B19
 |  |  | 0.07 nM | 829% | 0.00195 s⁻¹ | B20
 |  |  | 0.08 nM | 893% | 0.00185 s⁻¹ | B21
 |  |  | 0.07 nM | 858% | 0.000454 s⁻¹ | B22
 |  |  | 0.08 nM | 845% | 0.00192 s⁻¹ | B23
 |  |  | 0.07 nM | 986% | 0.00163 s⁻¹ | B24
 |  |  | 0.11 nM | 991% | 0.00169 s⁻¹ | B25
 |  |  | 0.05 nM | 863% | 0.00107 s⁻¹ | B26
 |  |  | 0.06 nM | 1110% | 0.000303 s⁻¹ | B27
